The assay addresses complement C3. Description: ELISA, peptide coated on plate, serum C3 detected with anti-C3 antibody; relative to A2-0 (SPE B C192S). On the technique in general: An ELISA detects its analyte on a solid surface through an enzyme-linked reagent.

GADGRNFYHVNWGWG [SPE B346~360 (as set forth in SEQ ID NO: 6)] displayed a binding ability relative to reference A2-0 above 50%.

The molecule ALGTGGGAGGFNGYQSAVVGIKP [SPE B376~398 (as set forth in SEQ ID NO: 8)] returned a binding ability relative to reference A2-0 above 50%.
